# According to IntAct's records for PubMed 23929946:
# B1: Protein BRASSINOSTEROID … 1 (Arabidopsis thaliana (Mouse-ear cress)), O22476 (parent)
# chain: MKTFSSFFLSVTTLFFFSFFSLSFQASPSQSLYREIHQLISFKDVLPDKNLLPDWSSNKNPCTFDGVTCRDDKVTSIDLSSKPLNVGFSAVSSSLLSLTGLESLFLSNSHINGSVSGFKCSASLTSLDLSRNSLSGPVTTLTSLGSCSGLKFLNVSSNTLDFPGKVSGGLKLNSLEVLDLSANSISGANVVGWVLSDGCGELKHLAISGNKISGDVDVSRCVNLEFLDVSSNNFSTGIPFLGDCSALQHLDISGNKLSGDFSRAISTCTELKLLNISSNQFVGPIPPLPLKSLQYLSLAENKFTGEIPDFLSGACDTLTGLDLSGNHFYGAVPPFFGSCSLLESLALSSNNFSGELPMDTLLKMRGLKVLDLSFNEFSGELPESLTNLSASLLTLDLSSNNFSGPILPNLCQNPKNTLQELYLQNNGFTGKIPPTLSNCSELVSLHLSFNYLSGTIPSSLGSLSKLRDLKLWLNMLEGEIPQELMYVKTLETLILDFNDLTGEIPSGLSNCTNLNWISLSNNRLTGEIPKWIGRLENLAILKLSNNSFSGNIPAELGDCRSLIWLDLNTNLFNGTIPAAMFKQSGKIAANFIAGKRYVYIKNDGMKKECHGAGNLLEFQGIRSEQLNRLSTRNPCNITSRVYGGHTSPTFDNNGSMMFLDMSYNMLSGYIPKEIGSMPYLFILNLGHNDISGSIPDEVGDLRGLNILDLSSNKLDGRIPQAMSALTMLTEIDLSNNNLSGPIPEMGQFETFPPAKFLNNPGLCGYPLPRCDPSNADGYAHHQRSHGRRPASLAGSVAMGLLFSFVCIFGLILVGREMRKRRRKKEAELEMYAEGHGNSGDRTANNTNWKLTGVKEALSINLAAFEKPLRKLTFADLLQATNGFHNDSLIGSGGFGDVYKAILKDGSAVAIKKLIHVSGQGDREFMAEMETIGKIKHRNLVPLLGYCKVGDERLLVYEFMKYGSLEDVLHDPKKAGVKLNWSTRRKIAIGSARGLAFLHHNCSPHIIHRDMKSSNVLLDENLEARVSDFGMARLMSAMDTHLSVSTLAGTPGYVPPEYYQSFRCSTKGDVYSYGVVLLELLTGKRPTDSPDFGDNNLVGWVKQHAKLRISDVFDPELMKEDPALEIELLQHLKVAVACLDDRAWRRPTMVQVMAMFKEIQAGSGIDSQSTIRSIEDGGFSTIEMVDMSIKEVPEGKL
# partner: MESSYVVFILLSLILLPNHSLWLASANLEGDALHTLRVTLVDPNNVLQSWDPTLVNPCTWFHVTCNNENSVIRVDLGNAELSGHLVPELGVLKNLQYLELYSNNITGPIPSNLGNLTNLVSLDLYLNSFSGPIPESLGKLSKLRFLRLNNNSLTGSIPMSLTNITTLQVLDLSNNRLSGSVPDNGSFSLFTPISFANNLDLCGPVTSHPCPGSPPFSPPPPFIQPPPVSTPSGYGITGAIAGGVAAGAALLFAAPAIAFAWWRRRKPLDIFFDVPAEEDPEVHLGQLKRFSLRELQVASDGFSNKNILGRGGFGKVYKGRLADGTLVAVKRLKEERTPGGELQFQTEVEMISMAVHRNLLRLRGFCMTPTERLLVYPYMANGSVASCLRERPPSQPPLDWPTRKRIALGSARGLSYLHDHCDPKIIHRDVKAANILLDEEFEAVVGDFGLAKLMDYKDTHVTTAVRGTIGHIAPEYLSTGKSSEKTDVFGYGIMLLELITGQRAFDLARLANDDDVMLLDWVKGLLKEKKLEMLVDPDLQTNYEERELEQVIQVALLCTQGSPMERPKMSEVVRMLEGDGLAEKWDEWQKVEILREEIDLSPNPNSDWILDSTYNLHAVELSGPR
# Variants of: B1
# Conditions: with serk1_arath SERK1, Q94AG2
row,effect of a mutation on the interaction,Variant
1,disrupting interaction strength,T750I
